# B1: Isoform 2 of Bardet-Biedl syndrome 7 protein (Homo sapiens), Q8IWZ6-2 (parent)
# chain: MDLILNRMDYLQVGVTSQKTMKLIPASRHRATQKVVIGDHDGVVMCFGMKKGEAAAVFKTLPGPKIARLELGGVINTPQEKIFIAAASEIRGFTKRGKQFLSFETNLTESIKAMHISGSDLFLSASYIYNHYCDCKDQHYYLSGDKINDVICLPVERLSRITPVLACQDRVLRVLQGSDVMYAVEVPGPPTVLALHNGNGGDSGEDLLFGTSDGKLALIQITTSKPVRKWEIQNEKKRGGILCIDSFDIVGDGVKDLLVGRDDGMVEVYSFDNANEPVLRFDQMLSESVTSIQGGCVGKDSYDEIVVSTYSGWVTGLTTEPIHKESGPGEELKINQEMQNKISSLRNELEHLQYKVLQERENYQQSSQSSKAKSAVPSFGINDKFTLNKDDASYSLILEVQTAIDNVLIQSDVPIDLLDVDKNSAVVSFSSCDSESNDNFLLATYRCQADTTRLELKIRSIEGQYGTLQAYVTPRIQPKTCQVRQYHIKPLSLHQRTHFIDHDRPMNTLTLTGQFSFAEVHSWVVFCLPEVPEKPPAGECVTFYFQNTFLDTQLESTYRKGEGVFKSDNISTISILKDVLSKEATKRKINLNISYEINEVSVKHTLKLIHPKLEYQLLLAKKVQLIDALKELQIHEGNTNFLIPEYHCILEEADHLQEEYKKQPAHLERLYG
# partner: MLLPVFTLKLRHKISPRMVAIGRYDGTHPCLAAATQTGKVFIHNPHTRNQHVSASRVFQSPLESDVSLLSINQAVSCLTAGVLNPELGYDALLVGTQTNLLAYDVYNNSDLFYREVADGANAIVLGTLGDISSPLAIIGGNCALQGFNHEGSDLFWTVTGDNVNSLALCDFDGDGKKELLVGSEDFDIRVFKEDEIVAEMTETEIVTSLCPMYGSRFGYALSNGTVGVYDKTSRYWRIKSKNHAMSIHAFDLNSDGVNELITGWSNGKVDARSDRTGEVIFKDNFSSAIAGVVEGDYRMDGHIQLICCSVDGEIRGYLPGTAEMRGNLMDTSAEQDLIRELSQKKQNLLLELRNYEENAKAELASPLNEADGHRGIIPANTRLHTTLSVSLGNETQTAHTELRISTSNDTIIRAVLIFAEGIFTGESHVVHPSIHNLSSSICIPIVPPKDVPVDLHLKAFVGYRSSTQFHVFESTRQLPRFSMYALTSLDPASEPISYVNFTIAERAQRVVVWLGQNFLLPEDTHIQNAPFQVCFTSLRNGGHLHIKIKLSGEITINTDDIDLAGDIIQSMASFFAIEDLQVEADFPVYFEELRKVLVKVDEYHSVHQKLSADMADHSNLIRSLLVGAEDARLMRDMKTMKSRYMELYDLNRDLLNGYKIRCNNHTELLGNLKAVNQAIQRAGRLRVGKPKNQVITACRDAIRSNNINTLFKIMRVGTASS
# Variants of: B1
# Conditions: with bbs2_human BBS2, Q9BXC9
row,Variant,effect of a mutation on the interaction
1,L509A,with no effect
2,Q495E,with no effect
3,Q495A,with no effect
4,R459K,with no effect
5,L491K,with no effect
6,S395A,with no effect
7,P328A,with no effect
8,T386A,with no effect
9,S343E,with no effect
10,C481K,with no effect
11,V400A,with no effect
12,T497K,with no effect
13,C432K,with no effect
14,H502A,with no effect
15,A403K,with no effect
16,F499A,with no effect
17,F499E,with no effect
18,K333E,with no effect
19,S431E,with no effect
20,S424K,with no effect
21,L442A,with no effect
22,L442P,disrupting interaction strength

row,Variant,effect of a mutation on the interaction
1,V472K,with no effect
2,V472A,with no effect
3,I458E,disrupting interaction strength
4,E348K,with no effect
5,Q336K,with no effect
6,S326A,with no effect
7,S326E,with no effect
8,K371E,with no effect
9,A375E,with no effect
10,K389A,with no effect
11,L349E,with no effect
12,L349K,with no effect
13,Q469K,with no effect
14,Q482K,with no effect
15,D438E,with no effect
16,F379K,with no effect
17,V356E,with no effect
18,N340K,with no effect
19,N423A,with no effect
20,Q410A,with no effect
21,D383K,with no effect
22,G327E,with no effect

row,Variant,effect of a mutation on the interaction
1,G327A,with no effect
2,Y471K,with no effect
3,L332E,with no effect
4,N507E,with no effect
5,N507K,with no effect
6,C447A,with no effect
7,V427A,with no effect
8,A372E,with no effect
9,L396P,disrupting interaction strength
10,D391A,with no effect
11,D391E,with no effect
12,V426A,with no effect
13,Y465K,with no effect
14,L408A,with no effect
15,L408E,with no effect
16,D503K,with no effect
17,I342E,with no effect
18,S369E,with no effect
19,R360A,with no effect
20,R496E,with no effect
21,R496K,with no effect
22,N382A,with no effect

row,Variant,effect of a mutation on the interaction
1,N382E,with no effect
2,T510K,with no effect
3,T510A,with no effect
4,S430E,with no effect
5,Y354A,with no effect
6,S411K,with no effect
7,S411E,with no effect
8,F385K,with no effect
9,P505A,with no effect
10,Q485K,with no effect
11,Q485L,disrupting interaction strength
12,Q485R,disrupting interaction strength
13,Q485A,with no effect
14,Q485N,disrupting interaction strength
15,R446A,with no effect
16,L418K,with no effect
17,S344K,with no effect
18,H351A,with no effect
19,H351E,with no effect
20,H351K,with no effect
21,E455K,disrupting interaction strength
22,N439E,with no effect

row,Variant,effect of a mutation on the interaction
1,Q365K,with no effect
2,F429K,with no effect
3,G513H,disrupting interaction strength
4,G513Y,disrupting interaction strength
5,E330A,with no effect
6,N362A,with no effect
7,N362E,with no effect
8,N362K,with no effect
9,Q358E,with no effect
10,P474K,disrupting interaction strength
11,S516E,with no effect
12,I488E,with no effect
13,E359K,with no effect
14,P490E,with no effect
15,T508E,with no effect
16,R504K,with no effect
17,I461E,with no effect
18,V483I,disrupting interaction strength

# The next lines start with the values.
row,effect of a mutation on the interaction,Variant
1,with no effect,L591A
2,with no effect,I570K
3,with no effect,I570E
4,with no effect,F641K
5,with no effect,Y558A
6,with no effect,V564K
7,with no effect,V564E
8,with no effect,K622A
9,with no effect,S571E
10,with no effect,S571A
11,with no effect,F543K
12,with no effect,Q663E
13,with no effect,I643A
14,with no effect,P529E
15,with no effect,P529A
16,disrupting interaction strength,P529S
17,with no effect,H647E
18,with no effect,H647A
19,with no effect,N592E
20,with no effect,S556A
21,with no effect,F526A
22,with no effect,F526K
23,with no effect,K586E
24,with no effect,T605K
25,with no effect,T605E

row,effect of a mutation on the interaction,Variant
1,with no effect,C540E
2,with no effect,D654E
3,with no effect,D568E
4,with no effect,D568A
5,with no effect,E539K
6,with no effect,Y615E
7,with no effect,Y615K
8,with no effect,Y544A
9,with no effect,L670K
10,with no effect,V600A
11,with no effect,E636K
12,with no effect,E636A
13,with no effect,N640A
14,with no effect,N640K
15,with no effect,N640E
16,with no effect,L613K
17,with no effect,D551K
18,with no effect,Q553E
19,with no effect,K661A
20,with no effect,L625E
21,with no effect,L576K
22,disrupting interaction strength,Q624Y
23,with no effect,D578E
24,with no effect,T639E
25,with no effect,R559K

row,effect of a mutation on the interaction,Variant
1,with no effect,G672K
2,with no effect,G561E
3,with no effect,I609E
4,with no effect,L580K
5,with no effect,Q546A
6,with no effect,L528A
7,with no effect,K630E
8,with no effect,I575K
9,with no effect,A665K
10,with no effect,I593K
11,with no effect,I593E
12,with no effect,T585K
13,with no effect,T557K
14,with no effect,Y660E
15,with no effect,I597E
16,with no effect,A518E
17,with no effect,L667A
18,with no effect,R669E
19,with no effect,N638E
20,with no effect,N638K
21,with no effect,H610A
22,with no effect,P536A
23,with no effect,T552A
24,with no effect,E651K

# Variants of: B1
# Conditions: with bbs2_human BBS2, Q9BXC9
# Remark: another data set of the same source
row,effect of a mutation on the interaction,Variant
1,with no effect,I458E

# Reference: IntAct's records for PubMed 29039417
